Experimental data published in US20230322953A1 (HARBOUR BIOMED SHANGHAI, published 2023).

T1: human BCMA (human, UniProt Q02223 1-184)
T1 construct: whole, on cells; also called hBCMA; TNFRSF17
T1 sequence (looked up): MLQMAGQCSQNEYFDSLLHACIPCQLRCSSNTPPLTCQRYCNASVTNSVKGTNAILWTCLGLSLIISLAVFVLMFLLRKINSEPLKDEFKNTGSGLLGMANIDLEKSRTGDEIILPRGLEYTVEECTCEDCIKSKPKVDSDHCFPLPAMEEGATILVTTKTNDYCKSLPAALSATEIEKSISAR


target: T1, human BCMA; experiment: FACS on NCI-H929 cells

Row | Binder | Maximum MFI | EC50 [nM]
1 | PR002000 (bispecific antibody, IgG1, BCMAxCD3, scFv(VL-VH)-Fc-VH (structure 20); CD3 scFv of PR000510, BCMA VH of PR000943; IgG1 knob/hole, AAG) chain 1: QAVVTQEPSLTVSPGGTVTLTCRSSTGAVTTSNYANWVQQKPGQAPRGLIGGTNKRAPWTPARFSGSLLGDKAALTLLGAQPEDEAEYFCALWYSNLWVFGGGTKLTVLGGGQSGQGGSGGGGSEVQLVESGGGLVQPGGSLKLSCAASGFTFNTYAMNWVRQASGKGLEWVGRIRSKYNNYATYYADSVKDRFTISRDDSKSTLYLQMNSLKTEDTAVYYCVRHGNFGNSYVSWFAYWGQGTLVTVSSASEPKSSDKTHTCPPCPAPEAAGGPSVFLFPPKPKDTLMISRTPEVTCVVVDVSHEDPEVKFNWYVDGVEVHNAKTKPREEQYNSTYRVVSVLTVLHQDWLNGKEYKCKVSNKALGAPIEKTISKAKGQPREPQVYTLPPCREEMTKNQVSLWCLVKGFYPSDIAVEWESNGQPENNYKTTPPVLDSDGSFFLYSKLTVDKSRWQQGNVFSCSVMHEALHNHYTQKSLSLSPGK chain 2: EVQLVETGGGLIQPGGSLRLSCAASGFPVSSNYMSWVRQAPGKGLEWVSVIFSGGRTYYADSVKGRFTISRDNSKNTLYLQMNSLRAEDTAVYYCARRNWIDGRDAFDIWGQGTMVTVSSASEPKSSDKTHTCPPCPAPEAAGGPSVFLFPPKPKDTLMISRTPEVTCVVVDVSHEDPEVKFNWYVDGVEVHNAKTKPREEQYNSTYRVVSVLTVLHQDWLNGKEYKCKVSNKALGAPIEKTISKAKGQPREPQVCTLPPSREEMTKNQVSLSCAVKGFYPSDIAVEWESNGQPENNYKTTPPVLDSDGSFFLVSKLTVDKSRWQQGNVFSCSVMHEALHNHYTQKSLSLSPGK | 4640 | 
2 | PR003874 (bispecific antibody, human IgG1, lambda, L234A L235A, BCMAxCD3, Fab-Fc-VH (structure 11); CD3 Fab of PR003886, BCMA VH of PR004569; IgG1 knob/hole, LALA) light: QAVVTQEPSLTVSPGGTVTLTCRSSTGAVTTSNYANWVQQKPGQAPRGLIGGTNKRAPWTPARFSGSLLGDKAALTLLGAQPEDEAEYFCALWYSNLWVFGGGTKLTVLGQPKAAPSVTLFPPSSEELQANKATLVCLISDFYPGAVTVAWKADSSPVKAGVETTTPSKQSNNKYAASSYLSLTPEQWKSHRSYSCQVTHEGSTVEKTVAPTECS heavy: not shown EVQLVETGGGLIQPGGSLRLSCAASGFTVSDSYMTWVRQAPGKGLEWVSVIFSGGRTYYSDSVKGRFTISRDNAKNTLYLQMNSLRAEDTALYYCARRNYDQTRGTDVFDIWGQGTMVTVSSASEPKSSDKTHTCPPCPAPEAAGGPSVFLFPPKPKDTLMISRTPEVTCVVVDVSHEDPEVKFNWYVDGVEVHNAKTKPREEQYNSTYRVVSVLTVLHQDWLNGKEYKCKVSNKALPAPIEKTISKAKGQPREPQVCTLPPSREEMTKNQVSLSCAVKGFYPSDIAVEWESNGQPENNYKTTPPVLDSDGSFFLVSKLTVDKSRWQQGNVFSCSVMHEALHNHYTQKSLSLSPGK | 11000 | 1.5
3 | PR002002 (bispecific antibody, IgG1, BCMAxCD3, scFv(VL-VH)-Fc-VH (structure 20); CD3 scFv of PR000510, BCMA VH of PR001046; IgG1 knob/hole, AAG) chain 1: QAVVTQEPSLTVSPGGTVTLTCRSSTGAVTTSNYANWVQQKPGQAPRGLIGGTNKRAPWTPARFSGSLLGDKAALTLLGAQPEDEAEYFCALWYSNLWVFGGGTKLTVLGGGQSGQGGSGGGGSEVQLVESGGGLVQPGGSLKLSCAASGFTFNTYAMNWVRQASGKGLEWVGRIRSKYNNYATYYADSVKDRFTISRDDSKSTLYLQMNSLKTEDTAVYYCVRHGNFGNSYVSWFAYWGQGTLVTVSSASEPKSSDKTHTCPPCPAPEAAGGPSVFLFPPKPKDTLMISRTPEVTCVVVDVSHEDPEVKFNWYVDGVEVHNAKTKPREEQYNSTYRVVSVLTVLHQDWLNGKEYKCKVSNKALGAPIEKTISKAKGQPREPQVYTLPPCREEMTKNQVSLWCLVKGFYPSDIAVEWESNGQPENNYKTTPPVLDSDGSFFLYSKLTVDKSRWQQGNVFSCSVMHEALHNHYTQKSLSLSPGK chain 2: EVQLVETGGGLIQPGGSLRLSCAASGFTVSDNYMTWVRQAPGKGLEWVSVIFSGGNTYYADSVKGRFTISRDNAKNTLYLQMNSLRAEDTALYYCARRNYDDTRGTDVFDIWGQGTMVTVSSASEPKSSDKTHTCPPCPAPEAAGGPSVFLFPPKPKDTLMISRTPEVTCVVVDVSHEDPEVKFNWYVDGVEVHNAKTKPREEQYNSTYRVVSVLTVLHQDWLNGKEYKCKVSNKALGAPIEKTISKAKGQPREPQVCTLPPSREEMTKNQVSLSCAVKGFYPSDIAVEWESNGQPENNYKTTPPVLDSDGSFFLVSKLTVDKSRWQQGNVFSCSVMHEALHNHYTQKSLSLSPGK | 4500 | 

Results, then the binder that gave them:

Row | Maximum MFI | EC50 [nM] | Binder
4 | 10800 | 2.1 | PR003879 (bispecific antibody, human IgG1, lambda, L234A L235A, BCMAxCD3, Fab-Fc-VH (structure 11); CD3 Fab of PR003886, BCMA VH of PR004574; IgG1 knob/hole, LALA) light: QAVVTQEPSLTVSPGGTVTLTCRSSTGAVTTSNYANWVQQKPGQAPRGLIGGTNKRAPWTPARFSGSLLGDKAALTLLGAQPEDEAEYFCALWYSNLWVFGGGTKLTVLGQPKAAPSVTLFPPSSEELQANKATLVCLISDFYPGAVTVAWKADSSPVKAGVETTTPSKQSNNKYAASSYLSLTPEQWKSHRSYSCQVTHEGSTVEKTVAPTECS heavy: not shown EVQLVETGGGLIQPGGSLRLSCAASGFTVSDAYMTWVRQAPGKGLEWVSVIFSGGRTYYSDSVKGRFTISRDNAKNTLYLQMNSLRAEDTALYYCARRNYDQTRGTDVFDIWGQGTMVTVSSASEPKSSDKTHTCPPCPAPEAAGGPSVFLFPPKPKDTLMISRTPEVTCVVVDVSHEDPEVKFNWYVDGVEVHNAKTKPREEQYNSTYRVVSVLTVLHQDWLNGKEYKCKVSNKALPAPIEKTISKAKGQPREPQVCTLPPSREEMTKNQVSLSCAVKGFYPSDIAVEWESNGQPENNYKTTPPVLDSDGSFFLVSKLTVDKSRWQQGNVFSCSVMHEALHNHYTQKSLSLSPGK
5 | 10900 | 2.3 | PR003876 (bispecific antibody, human IgG1, lambda, L234A L235A, BCMAxCD3, Fab-Fc-VH (structure 11); CD3 Fab of PR003886, BCMA VH of PR004571; IgG1 knob/hole, LALA) light: QAVVTQEPSLTVSPGGTVTLTCRSSTGAVTTSNYANWVQQKPGQAPRGLIGGTNKRAPWTPARFSGSLLGDKAALTLLGAQPEDEAEYFCALWYSNLWVFGGGTKLTVLGQPKAAPSVTLFPPSSEELQANKATLVCLISDFYPGAVTVAWKADSSPVKAGVETTTPSKQSNNKYAASSYLSLTPEQWKSHRSYSCQVTHEGSTVEKTVAPTECS heavy: not shown EVQLVETGGGLIQPGGSLRLSCAASGFTVSDSYMTWVRQAPGKGLEWVSVIFSGGKTYYSDSVKGRFTISRDNAKNTLYLQMNSLRAEDTALYYCARRNYDQTIGTDVFDIWGQGTMVTVSSASEPKSSDKTHTCPPCPAPEAAGGPSVFLFPPKPKDTLMISRTPEVTCVVVDVSHEDPEVKFNWYVDGVEVHNAKTKPREEQYNSTYRVVSVLTVLHQDWLNGKEYKCKVSNKALPAPIEKTISKAKGQPREPQVCTLPPSREEMTKNQVSLSCAVKGFYPSDIAVEWESNGQPENNYKTTPPVLDSDGSFFLVSKLTVDKSRWQQGNVFSCSVMHEALHNHYTQKSLSLSPGK
6 | 8660 | 5.6 | PR003880 (bispecific antibody, human IgG1, lambda, L234A L235A, BCMAxCD3, Fab-Fc-VH (structure 11); CD3 Fab of PR003886, BCMA VH of PR004560; IgG1 knob/hole, LALA) light: QAVVTQEPSLTVSPGGTVTLTCRSSTGAVTTSNYANWVQQKPGQAPRGLIGGTNKRAPWTPARFSGSLLGDKAALTLLGAQPEDEAEYFCALWYSNLWVFGGGTKLTVLGQPKAAPSVTLFPPSSEELQANKATLVCLISDFYPGAVTVAWKADSSPVKAGVETTTPSKQSNNKYAASSYLSLTPEQWKSHRSYSCQVTHEGSTVEKTVAPTECS heavy: not shown EVQLVETGGGLIQPGGSLRLSCAASGFTVSDAYMTWVRQAPGKGLEWVSVIFSGGNTYVSDSVKGRFTISRDNAKNTLYLQMNSLRAEDTALYYCARRNYDQTRGTDVFDIWGQGTMVTVSSASEPKSSDKTHTCPPCPAPEAAGGPSVFLFPPKPKDTLMISRTPEVTCVVVDVSHEDPEVKFNWYVDGVEVHNAKTKPREEQYNSTYRVVSVLTVLHQDWLNGKEYKCKVSNKALPAPIEKTISKAKGQPREPQVCTLPPSREEMTKNQVSLSCAVKGFYPSDIAVEWESNGQPENNYKTTPPVLDSDGSFFLVSKLTVDKSRWQQGNVFSCSVMHEALHNHYTQKSLSLSPGK
